Assay results: patent US20220372160A1 (published 2022)
Numbering of substitutions follows the chain as printed.

T1: recombinant human CD39 (human, UniProt P49961 38-478)
T1 chain: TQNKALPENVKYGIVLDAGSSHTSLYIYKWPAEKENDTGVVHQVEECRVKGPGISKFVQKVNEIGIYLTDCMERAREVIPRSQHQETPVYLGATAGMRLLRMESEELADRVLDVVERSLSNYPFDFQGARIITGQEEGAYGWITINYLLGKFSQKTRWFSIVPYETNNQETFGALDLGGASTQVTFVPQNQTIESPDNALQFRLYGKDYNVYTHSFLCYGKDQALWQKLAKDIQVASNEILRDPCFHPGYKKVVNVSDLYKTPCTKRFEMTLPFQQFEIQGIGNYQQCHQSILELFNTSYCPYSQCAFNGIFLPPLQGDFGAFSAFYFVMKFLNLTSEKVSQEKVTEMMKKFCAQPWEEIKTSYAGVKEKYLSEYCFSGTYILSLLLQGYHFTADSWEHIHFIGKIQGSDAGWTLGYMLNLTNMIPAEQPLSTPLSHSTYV

B1: Clone #10 (antibody, V domains shown)
VH: QVQLVQSGAEVKKPGSSVKVSCKASGGTFSNYAISWVRQAPGQGLEWMGGIIPIFGTANYAQKFQGRVTITADESTSTAYMELSSLRSEDTAVYYCARPRGDYSGYDAGPIDYWGQGTLVTVSS
VL: EIVLTQSPATLSLSPGERATLSCRASQSVSSYLAWYQQKPGQAPRLLIYDASNRATGIPARFSGSGSGTDFTLTISSLEPEDFAVYYCQQRFHFPPTFGGGTKVEIK
B2: Clone #2 (antibody, V domains shown)
VH: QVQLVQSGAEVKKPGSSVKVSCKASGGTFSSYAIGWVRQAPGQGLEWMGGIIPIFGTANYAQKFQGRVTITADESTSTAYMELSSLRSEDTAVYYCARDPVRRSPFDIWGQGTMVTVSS
VL: B1 VL with A51S, R91S, H93L, F94W, P96R
B3: Clone #11 (antibody, V domains shown)
VH: B1 VH
VL: B1 VL with L4M, A51S, F92Y, H93L, P96I
B4: Clone #16 (antibody, V domains shown)
VH: QVQLVQSGAEVKKPGSSVKVSCKASGGTFSSNAIGWVRQAPGQGLEWMGGIIPAFGTANYAQKFQGRVTITADESTSTAYMELSSLRSEDTAVYYCARDPVRRSPFDIWGQGTMVTVSS
VL: B1 VL with A51S, R91S, H93L, F94W, P96R
B5: Clone #8 (antibody, V domains shown)
VH: QLQLQESGPGLVKPSETLSLTCTVSGGSISSSSYYWGWIRQPPGKGLEWIGSIYYSGSTYYNPSLKSRVTISVDTSKNQFSLKLSSVTAADTAVYYCARGSPTYHDFDLWGRGTLVTVSS
VL: B1 VL with F92A, H93I, F94W
B6: Clone #7 (antibody, V domains shown)
VH: QVQLQESGPGLVKPSETLSLTCAVSGYSISSGYYWAWIRQPPGKGLEWIGSIYHSGSTYYNPSLKSRVTISVDTSKNQFSLKLSSVTAADTAVYYCARGAGHRQFAFDIWGQGTMVTVSS
VL: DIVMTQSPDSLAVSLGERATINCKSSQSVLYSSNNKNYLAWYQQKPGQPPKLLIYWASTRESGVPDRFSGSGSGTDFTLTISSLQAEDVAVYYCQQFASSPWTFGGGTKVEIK
B7: Clone #9 (antibody, V domains shown)
VH: B6 VH
VL: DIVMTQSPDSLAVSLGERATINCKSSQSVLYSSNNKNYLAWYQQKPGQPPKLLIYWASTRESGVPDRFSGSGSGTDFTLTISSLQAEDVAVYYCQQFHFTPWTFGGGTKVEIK
B8: Clone #19 (antibody, V domains shown)
VH: EVQLVESGGGLVQPGGSLRLSCAASGFTFRSYWMSWVRQAPGKGLEWVATIKQDGSEKFYVDSVKGRFTISRDNAKNSLYLQMNSLRAEDTAVYYCARDFTRWSHVNWFDPWGQGTLVTVSS
VL: EIVMTQSPATLSVSPGERATLSCRASQSVSSSLAWYQQKPGQAPRLLIFGASTRATGIPARFSGSGSGTEFTLTISSLQSEDFAVYYCQQYYHHPYTFGGGTKVEIK
B9: Clone #6 (antibody, V domains shown)
VH: B8 VH with R30S, W33G, T50N, F59Y
VL: B8 VL
B10: Clone #12 (antibody, V domains shown)
VH: EVQLVESGGGLVQPGGSLRLSCAASGFTFSSYYMQWVRQAPGKGLEWVSYISSSSSTIGYADSVKGRFTISRDNAKNSLYLQMNSLRAEDTAVYYCAKGPRYDSSGYRWRYGMDVWGQGTTVTVSS
VL: DIQMTQSPSSLSASVGDRVTITCRASQSISSYLNWYQQKPGKAPKLLIYAASSLQSGVPSRFSGSGSGTDFTLTISSLQPEDFATYYCQQLALTPYTFGGGTKVEIK
B11: Clone #4 (antibody, V domains shown)
VH: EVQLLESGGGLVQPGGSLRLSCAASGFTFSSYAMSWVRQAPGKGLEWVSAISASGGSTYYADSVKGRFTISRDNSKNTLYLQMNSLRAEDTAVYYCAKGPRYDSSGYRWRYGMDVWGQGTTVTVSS
VL: B10 VL
B12: Clone #3 (antibody, V domains shown)
VH: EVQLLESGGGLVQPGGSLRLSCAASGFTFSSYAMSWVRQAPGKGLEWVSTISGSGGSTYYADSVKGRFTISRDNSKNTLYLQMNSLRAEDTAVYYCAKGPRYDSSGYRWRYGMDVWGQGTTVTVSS
VL: DIQMTQSPSSLSASVGDRVTITCRASQSISSYLNWYQQKPGKAPKLLIYAASSLQSGVPSRFSGSGSGTDFTLTISSLQPEDFATYYCQQLYVDPPWTFGGGTKVEIK

Molecular target: T1, recombinant human CD39
Experiment: BLI (ForteBio); IgG, monovalent

Binder | Kd [nM]
B1 | 37.3
B2 | 11.6
B3 | 14.7
B4 | 3.81
B5 | 28.3
B6 | 94.3
B7 | 124
B8 | 28.3
B9 | 177
B10 | 1.38
B11 | 3.65
B12 | 3.25
